Data from patent US20050222029A1 (MYRIAD GENETICS, published 2005).

Tests used:
[1] = target: T1, GTPase-activiating protein 1 1299-1555 (human, UniProt P46940 1299-1555); test: yeast two-hybrid
T1 construct: prey (Gal4 AD-HA fusion); also called IQGAP1; IQGAP
T1 sequence (looked up): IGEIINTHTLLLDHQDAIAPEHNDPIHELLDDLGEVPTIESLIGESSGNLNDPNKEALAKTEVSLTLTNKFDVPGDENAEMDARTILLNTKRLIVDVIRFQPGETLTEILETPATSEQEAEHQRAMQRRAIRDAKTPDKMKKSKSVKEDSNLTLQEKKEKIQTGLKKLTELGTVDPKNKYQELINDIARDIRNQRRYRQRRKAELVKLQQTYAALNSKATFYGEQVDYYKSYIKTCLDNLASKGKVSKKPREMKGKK

[2] = target: T2, Mitotic spindle coiled-coil related protein 723-1012 (human, UniProt Q96R06 723-1012); test: yeast two-hybrid
T2 construct: prey (Gal4 AD-HA fusion)
T2 sequence (looked up): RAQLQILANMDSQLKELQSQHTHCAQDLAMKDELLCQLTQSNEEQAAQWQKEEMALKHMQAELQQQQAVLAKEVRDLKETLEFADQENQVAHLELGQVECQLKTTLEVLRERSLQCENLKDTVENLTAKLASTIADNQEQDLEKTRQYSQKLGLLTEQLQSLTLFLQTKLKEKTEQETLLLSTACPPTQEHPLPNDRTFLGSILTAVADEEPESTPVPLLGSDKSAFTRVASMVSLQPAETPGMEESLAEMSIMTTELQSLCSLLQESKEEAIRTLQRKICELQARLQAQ

Keratin 8 147-406 = target: T3, Keratin 8 147-406 (human, UniProt P05787 147-406); test: yeast two-hybrid
T3 construct: prey (Gal4 AD-HA fusion)
T3 sequence (looked up): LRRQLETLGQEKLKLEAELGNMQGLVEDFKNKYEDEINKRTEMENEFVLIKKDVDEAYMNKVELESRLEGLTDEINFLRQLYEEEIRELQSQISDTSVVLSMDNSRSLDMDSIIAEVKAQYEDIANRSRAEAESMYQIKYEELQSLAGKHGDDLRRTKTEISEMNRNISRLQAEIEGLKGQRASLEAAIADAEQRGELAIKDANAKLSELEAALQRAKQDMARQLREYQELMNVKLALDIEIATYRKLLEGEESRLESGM

[3] = target: T4, GTPase-activiating protein 1 1413-1567 (human, UniProt P46940 1413-1567); test: yeast two-hybrid
T4 construct: prey (Gal4 AD-HA fusion); also called IQGAP1; IQGAP
T4 sequence (looked up): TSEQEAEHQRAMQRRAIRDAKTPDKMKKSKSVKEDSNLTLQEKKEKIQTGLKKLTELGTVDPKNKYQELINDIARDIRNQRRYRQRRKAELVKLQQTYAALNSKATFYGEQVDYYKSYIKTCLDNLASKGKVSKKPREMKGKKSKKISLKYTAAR

Intersection 1 210-633 = target: T5, Intersection 1 210-633 (human, UniProt Q15811 210-633); test: yeast two-hybrid
T5 construct: prey (Gal4 AD-HA fusion); also called Intersectin 1; ITSN1
T5 sequence (looked up): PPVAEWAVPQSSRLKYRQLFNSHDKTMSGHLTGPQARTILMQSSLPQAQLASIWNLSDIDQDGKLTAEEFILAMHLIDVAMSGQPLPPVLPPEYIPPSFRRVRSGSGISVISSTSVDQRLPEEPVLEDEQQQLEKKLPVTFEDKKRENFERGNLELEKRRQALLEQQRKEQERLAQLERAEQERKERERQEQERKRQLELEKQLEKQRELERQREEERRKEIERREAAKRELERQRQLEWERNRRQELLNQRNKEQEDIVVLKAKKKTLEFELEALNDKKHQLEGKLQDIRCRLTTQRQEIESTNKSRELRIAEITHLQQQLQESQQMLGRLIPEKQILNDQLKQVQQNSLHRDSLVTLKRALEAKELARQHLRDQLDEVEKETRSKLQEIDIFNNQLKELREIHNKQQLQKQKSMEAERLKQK

[4] = target: T6, Mitotic spindle coiled-coil related protein 701-1082 (human, UniProt Q96R06 701-1082); test: yeast two-hybrid
T6 construct: prey (Gal4 AD-HA fusion)
T6 sequence (looked up): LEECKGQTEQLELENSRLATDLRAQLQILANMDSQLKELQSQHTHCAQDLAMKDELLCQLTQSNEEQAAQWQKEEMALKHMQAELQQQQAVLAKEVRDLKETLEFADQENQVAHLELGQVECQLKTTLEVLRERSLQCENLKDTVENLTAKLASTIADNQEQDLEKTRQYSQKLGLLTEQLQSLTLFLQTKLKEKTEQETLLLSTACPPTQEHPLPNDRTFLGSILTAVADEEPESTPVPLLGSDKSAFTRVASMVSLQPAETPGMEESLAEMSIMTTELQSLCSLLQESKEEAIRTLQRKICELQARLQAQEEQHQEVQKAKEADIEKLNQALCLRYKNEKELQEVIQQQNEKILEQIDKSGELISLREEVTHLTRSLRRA

Hook2 protein 290-555 = target: T7, Hook2 protein 290-555 (human, UniProt Q96ED9 290-555); test: yeast two-hybrid
T7 construct: prey (Gal4 AD-HA fusion)
T7 sequence (looked up): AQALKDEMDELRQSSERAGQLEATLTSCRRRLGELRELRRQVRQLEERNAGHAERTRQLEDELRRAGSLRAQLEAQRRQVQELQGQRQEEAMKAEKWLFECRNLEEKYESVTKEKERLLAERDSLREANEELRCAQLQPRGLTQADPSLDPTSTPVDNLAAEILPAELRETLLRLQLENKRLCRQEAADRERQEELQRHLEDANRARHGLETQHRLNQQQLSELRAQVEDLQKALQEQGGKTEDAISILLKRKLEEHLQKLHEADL

[5] = target: T8, Mitotic spindle coiled-coil related protein 668-895 (human, UniProt Q96R06 668-895); test: yeast two-hybrid
T8 construct: prey (Gal4 AD-HA fusion)
T8 sequence (looked up): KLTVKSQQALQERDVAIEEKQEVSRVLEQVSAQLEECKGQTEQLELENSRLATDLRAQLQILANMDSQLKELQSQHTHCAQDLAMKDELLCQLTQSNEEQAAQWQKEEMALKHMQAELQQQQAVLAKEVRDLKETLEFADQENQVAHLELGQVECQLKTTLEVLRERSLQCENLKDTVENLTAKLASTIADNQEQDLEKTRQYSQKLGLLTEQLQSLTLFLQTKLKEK

VPS28 protein 27-221 = target: T9, VPS28 protein 27-221 (human, UniProt Q9UK41 27-221); test: yeast two-hybrid, breast and prostate cancer library
T9 construct: prey (Gal4 AD-HA fusion); also called vacuolar protein sorting 28
T9 sequence (looked up): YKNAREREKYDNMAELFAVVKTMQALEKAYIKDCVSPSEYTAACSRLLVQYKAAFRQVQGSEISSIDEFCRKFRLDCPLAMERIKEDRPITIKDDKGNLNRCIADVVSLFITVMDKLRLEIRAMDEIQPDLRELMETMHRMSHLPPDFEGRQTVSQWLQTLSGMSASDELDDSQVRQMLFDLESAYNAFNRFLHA

Measured: binding result

B1: Tumor Suppressor (TSG101) 240-391 (other, human, UniProt Q99816 240-390, looked up)
chain: WRMKEEMDRAQAELNALKRTEEDLKKGHQKLEEMVTRLDQEVAEVDKNIELLKKKDEELSSALEKMENQSENNDIDEVIIPTAPLYKQILNLYAEENAIEDTIFYLGEALRRGVIDLDVFLKHVRLLSRKQFQLRALMQKARKTAGLSDLY
notes: range 240-391; bait (Gal4 DBD fusion); also called TSG101 240-390
binds: all assays above
